This is an account of results in the Human Domainome abundance scans (Beltran et al. 2025).

First the molecules themselves.
B1: CD2-associated protein, residues 271 to 331; numbered along this chain, Q9Y5K6 (parent)
chain: KEYCRTLFAYEGTNEDELTFKEGEIIHLISKETGEAGWWRGELNGKEGVFPDNFAVQINEL

± gives the uncertainty stated by the source.

This series covers variants of B1. As to the kind of experiment: abundance fitness (aPCA) (normalised: wild type 0, dead -1); higher = more abundant; growth selection in yeast, the domain comes from the species named. To be noted: Homo sapiens.
KEYCRTLFAYEGTNEDELTFKEGEIIHLITKETGEAGWWRGELNGKEGVFPDNFAVQINEL [S30T]: the abundance fitness is 0.023 ± 0.062. For the variant KEYCRTLFAYEGTNEDELTFKEGEIIHLIDKETGEAGWWRGELNGKEGVFPDNFAVQINEL [S30D], the abundance fitness is -0.2 ± 0.12. For the variant KEYCRTLFAYEGTNMDELTFKEGEIIHLISKETGEAGWWRGELNGKEGVFPDNFAVQINEL [E15M], the abundance fitness is -0.23 ± 0.1.

With KEYCRTLFAYEGTGEDELTFKEGEIIHLISKETGEAGWWRGELNGKEGVFPDNFAVQINEL [N14G], the abundance fitness is -0.087 ± 0.072.

KEYCRTLFAYEGTEEDELTFKEGEIIHLISKETGEAGWWRGELNGKEGVFPDNFAVQINEL [N14E]: the abundance fitness is -0.159 ± 0.092.

For the variant KEYCRTLFAYEGTDEDELTFKEGEIIHLISKETGEAGWWRGELNGKEGVFPDNFAVQINEL [N14D], the abundance fitness is -0.107 ± 0.1. Consider KEYCRTLFAYEGTNEDELTFKEGEIIHLISKETLEAGWWRGELNGKEGVFPDNFAVQINEL [G34L], for which the abundance fitness was -0.477 ± 0.084. KEYCRTLFAYEGTNEDELTFKEGEIIHLISKETYEAGWWRGELNGKEGVFPDNFAVQINEL [G34Y]: the abundance fitness is -0.628 ± 0.19.

Take KEYCRTLFAYEGTNEDELTFKEGEIIHSISKETGEAGWWRGELNGKEGVFPDNFAVQINEL [L28S]: the abundance fitness was -0.712 ± 0.067. Then KEYCRTLFAYEGTNEDELTFKEGEIIHLISKETGEAGWWRGELNGKLGVFPDNFAVQINEL [E47L], with -0.241 ± 0.074; and KEYCRTLFAYEGTNEDELTFKEGEIIHLISKETGEAGWWRGELNGKFGVFPDNFAVQINEL [E47F], with -0.198 ± 0.073; and KEYCRTLFAYEGTNEDELTFKEGEIIHLISKETGEAGWWRGELNGKNGVFPDNFAVQINEL [E47N], with -0.205 ± 0.062. Turning to KEYCRTLFAYEGTNEDELTFKEGEIIHLISKETGEASWWRGELNGKEGVFPDNFAVQINEL [G37S], the abundance fitness is -0.718 ± 0.1. As for KEYCRTLFAYEVTNEDELTFKEGEIIHLISKETGEAGWWRGELNGKEGVFPDNFAVQINEL [G12V], the abundance fitness is -1.1 ± 0.19. As to KEYCRTLFAYEGTNEDELEFKEGEIIHLISKETGEAGWWRGELNGKEGVFPDNFAVQINEL [T19E], the abundance fitness is -0.696 ± 0.21.

Take KEYCRTLFAYEGTNEDELTFKEGEIIHLISKETGEAGWWRGELNGKEGVNPDNFAVQINEL [F50N]: the abundance fitness is -0.809 ± 0.36. For KEYCRTLFAYEGTNEDELTFKYGEIIHLISKETGEAGWWRGELNGKEGVFPDNFAVQINEL [E22Y], the abundance fitness was -0.915 ± 0.31.

Turning to KEYCRTLFAYEGTNEDDLTFKEGEIIHLISKETGEAGWWRGELNGKEGVFPDNFAVQINEL [E17D], the abundance fitness was -0.213 ± 0.13. In the case of KEYCRTLFAYEGTNEDELTIKEGEIIHLISKETGEAGWWRGELNGKEGVFPDNFAVQINEL [F20I], the abundance fitness was -0.492 ± 0.13. With KEYGRTLFAYEGTNEDELTFKEGEIIHLISKETGEAGWWRGELNGKEGVFPDNFAVQINEL [C4G], the abundance fitness is -0.707 ± 0.094.

Take KEYSRTLFAYEGTNEDELTFKEGEIIHLISKETGEAGWWRGELNGKEGVFPDNFAVQINEL [C4S]: the abundance fitness was -0.791 ± 0.095. KEYCRTLFAYEGTNEDELTFKEGEIIHLISKETGEAGWWRGELNGKEGVFPDNFAVEINEL [Q57E]: the abundance fitness was -0.016 ± 0.06. For KEYCRTLFAYEGTNEDELTFKEGEIIHLISKETGEAGWWRGELNGKEGVFPDNFAVTINEL [Q57T], the abundance fitness was -0.024 ± 0.066.

For the variant KEYCRTLFAYEGTNEDELTFKEGEIIHLISKETGEAGWWRYELNGKEGVFPDNFAVQINEL [G41Y], the abundance fitness is -0.938 ± 0.23. As for KEYCRTLFAYEGTNEDELTFKEGEIIHLISKETGEAGWWRNELNGKEGVFPDNFAVQINEL [G41N], the abundance fitness is -0.881 ± 0.22. In the case of KEYCRTLFAYEGTNEDELTFKEGEIIHLISKETGEAGWWRGELNGKEGVFPDNIAVQINEL [F54I], the abundance fitness was -0.191 ± 0.11. Take KEYCRTLFAIEGTNEDELTFKEGEIIHLISKETGEAGWWRGELNGKEGVFPDNFAVQINEL [Y10I]: the abundance fitness was -0.846 ± 0.48. The result for KEYCRTLFAYEGKNEDELTFKEGEIIHLISKETGEAGWWRGELNGKEGVFPDNFAVQINEL [T13K] reads 0.108 ± 0.066; that for KEYCRTLFAYEGTNEDELTFKEGEIIHLISKETGEAGWWRGELNGKEGGFPDNFAVQINEL [V49G], -0.628 ± 0.053. On to KEYCRTLFAYEGTNEDELTFKEGEIIHLISKETGEAGWWRGELNGKEGTFPDNFAVQINEL [V49T], for which the abundance fitness is -0.129 ± 0.083. For the variant KEYCRTLPAYEGTNEDELTFKEGEIIHLISKETGEAGWWRGELNGKEGVFPDNFAVQINEL [F8P], the abundance fitness is -0.432 ± 0.074. Turning to KEYCRTLRAYEGTNEDELTFKEGEIIHLISKETGEAGWWRGELNGKEGVFPDNFAVQINEL [F8R], the abundance fitness amounted to 0.12 ± 0.044. For KEYCRTLFAYEGTNEDELTFKEGEIIHLNSKETGEAGWWRGELNGKEGVFPDNFAVQINEL [I29N], the abundance fitness was -0.433 ± 0.12. With KEYCRTLFAYEGTNEDELTFKEGEIIHLPSKETGEAGWWRGELNGKEGVFPDNFAVQINEL [I29P], the abundance fitness is -0.524 ± 0.096. Regarding KEYCRTLFAYEGTNEDELTFKEGEIIHLISKETGEAGWWRGELNGKEGVFPDNFAVQINEM [L61M], the abundance fitness was -0.003 ± 0.079. Consider AEYCRTLFAYEGTNEDELTFKEGEIIHLISKETGEAGWWRGELNGKEGVFPDNFAVQINEL [K1A], for which the abundance fitness is -0.529 ± 0.097.

For IEYCRTLFAYEGTNEDELTFKEGEIIHLISKETGEAGWWRGELNGKEGVFPDNFAVQINEL [K1I], the abundance fitness was -0.245 ± 0.12. Take KEYCRTLFAYEGTNEDELTFKEGEIIHLISKETGEAGWWRGELNGKEGVFPDNFAVQINVL [E60V]: the abundance fitness is -0.291 ± 0.12. As to KEYCRTLFAYEGTNEDELTFKEGEIIHLISKEAGEAGWWRGELNGKEGVFPDNFAVQINEL [T33A], the abundance fitness was -0.198 ± 0.083. As for KEYCRTLFAYEGTNEDELTFKEGEIIHLISKETGELGWWRGELNGKEGVFPDNFAVQINEL [A36L], the abundance fitness is -0.305 ± 0.072. Regarding KEYCRTLFAYEGTNEDELTFKEGEIIALISKETGEAGWWRGELNGKEGVFPDNFAVQINEL [H27A], the abundance fitness is -0.005 ± 0.059. KEYCRTLFAYEGTNEDELTFKELEIIHLISKETGEAGWWRGELNGKEGVFPDNFAVQINEL [G23L]: the abundance fitness is -0.941 ± 0.12.

Turning to KEYCRTLFAYEGTNEDELTFKEQEIIHLISKETGEAGWWRGELNGKEGVFPDNFAVQINEL [G23Q], the abundance fitness was -0.726 ± 0.15.

Regarding KEYCRTLFAYEGTNEDELTFKEHEIIHLISKETGEAGWWRGELNGKEGVFPDNFAVQINEL [G23H], the abundance fitness was -0.644 ± 0.16.
